# Source: article PMC11192767, “A cocktail nanovaccine targeting key entry glycoproteins elicits high neutralizing antibody levels against EBV infection” (Nature Communications, 2024)
# B1: EBV gB ectodomain (residues 22 to 672, fusion-loop residues replaced with HSV-1 residues), 6x His tag (domain or fragment)
# chain: AQTPEQPAPPATTVQPTATRQQTSFPFRVCELSSHGDLFRFSSDIQCPSFGTRENHTEGLLMVFKDNIIPYSFKVRSYTKIVTNILIYNGHRADSVTNRHEEKFSVDSYETDQMDTIYQCYNAVKMTKDGLTRVYVDRDGVNITVNLKPTGGLANGVRRYASQTELYDAPGRVEATYRTRTTVNCLITDMMAKSNSPFDFFVTTTGQTVEMSPFYDGKNKETFHERADSFHVRTNYKIVDYDNRGTNPQGERRAFLDKGTYTLSWKLENRTAYCPLQHWQTFDSTIATETGKSIHFVTDEGTSSFVTNTTVGIELPDAFKCIEEQVNKTMHEKYEAVQDRYTKGQEAITYFITSGGLLLAWLPLTPRSLATVKNLTELTTPTSSPPSSPSPPAPSAARGSTPAAVLRRRRRDAGNATTPVPPTAPGKSLGTLNNPATVQIQFAYDSLRRQINRMLGDLARAWCLEQKRQNMVLRELTKINPTTVMSSIYGKAVAAKRLGDVISVSQCVPVNQATVTLRKSMRVPGSETMCYSRPLVSFSFINDTKTYEGQLGTDNEIFLTKKMTEVCQATSQYYFQSGNEIHVYNDYHHFKTIELDGIATLQTFISLNTSLIENIDFASLELYSRDEQRASNVFDLEGIFREYNFQAQNIA
# notes: Epstein-Barr virus glycoprotein B (gB), ectodomain residues 22 to 672, PCR-amplified from the EBV M81 strain (GenBank KF373730.1); WY112-113 and WLIW193-196 replaced with HSV-1 residues HR177-178 and RVEA258-261; Tested both before encapsulation and after release from the nanoparticles; also called glycoprotein B; fusogen gB; source: 293F cells, transiently transfected (pCDNA3.1-gB), purified …
# Molecular target: the molecule itself
# Test: native gel or EMSA; gB before encapsulation and gB released from nanoparticles, analysed under native non-reducing conditions (Fig. S5A)
protein,measurement,value
B1,stoichiometry N,3
